Experimental data taken from the supplement of paper PMC10065799, “High-throughput profiling of sequence recognition by tyrosine kinases and SH2 domains using bacterial peptide display” (eLife, 2023).

Columns and labels:
Grb2 SH2 = Grb2 SH2 (UniProt P62993); assay: SH2 binding enrichment of the phosphorylated peptide, bacterial display (enrichment ratio); higher = better substrate or ligand; peptides without Tyr show the background
SHP2-C SH2 = assay: as above
c-Src SH2 = assay: as above
MERTK = MERTK (UniProt Q12866); assay: phosphorylation enrichment, bacterial display (enrichment ratio); higher = better substrate or ligand; peptides without Tyr show the background
Jak2 = Jak2 (UniProt O60674); assay: as above
EPHB1 = EPHB1 (UniProt P54762); assay: as above
c-Abl (mouse) = assay: as above
Fer (mouse) = assay: as above
Hck = Hck (UniProt P08631); assay: as above
Fyn = Fyn (UniProt P06241); assay: as above
FGFR3 = FGFR3 (UniProt P22607); assay: as above
EPHB2 = EPHB2 (UniProt P29323); assay: as above
Fes = Fes (UniProt P07332); assay: as above
c-Src = assay: as above
AncSZ = assay: as above
FGFR1 = FGFR1 (UniProt P11362); assay: as above
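For SH2 binding enrichment of the phosphorylated peptide, bacterial display in this document: peptide library displayed on the E. coli surface as eCPX fusions, selected cells deep-sequenced, score is each peptide's frequency after selection divided by its frequency in the input.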
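For phosphorylation enrichment, bacterial display in this document: 11-residue human phosphosite peptides and single-mutation variants displayed on the E. coli surface, counted by deep sequencing, each peptide's frequency after selection divided by its frequency in the unselected input library; frequency after pTyr selection over input frequency; kinase dosed for 20-30% of maximal phosphorylation in three min.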

Chain of Jak2 (O60674 whole entry, looked up): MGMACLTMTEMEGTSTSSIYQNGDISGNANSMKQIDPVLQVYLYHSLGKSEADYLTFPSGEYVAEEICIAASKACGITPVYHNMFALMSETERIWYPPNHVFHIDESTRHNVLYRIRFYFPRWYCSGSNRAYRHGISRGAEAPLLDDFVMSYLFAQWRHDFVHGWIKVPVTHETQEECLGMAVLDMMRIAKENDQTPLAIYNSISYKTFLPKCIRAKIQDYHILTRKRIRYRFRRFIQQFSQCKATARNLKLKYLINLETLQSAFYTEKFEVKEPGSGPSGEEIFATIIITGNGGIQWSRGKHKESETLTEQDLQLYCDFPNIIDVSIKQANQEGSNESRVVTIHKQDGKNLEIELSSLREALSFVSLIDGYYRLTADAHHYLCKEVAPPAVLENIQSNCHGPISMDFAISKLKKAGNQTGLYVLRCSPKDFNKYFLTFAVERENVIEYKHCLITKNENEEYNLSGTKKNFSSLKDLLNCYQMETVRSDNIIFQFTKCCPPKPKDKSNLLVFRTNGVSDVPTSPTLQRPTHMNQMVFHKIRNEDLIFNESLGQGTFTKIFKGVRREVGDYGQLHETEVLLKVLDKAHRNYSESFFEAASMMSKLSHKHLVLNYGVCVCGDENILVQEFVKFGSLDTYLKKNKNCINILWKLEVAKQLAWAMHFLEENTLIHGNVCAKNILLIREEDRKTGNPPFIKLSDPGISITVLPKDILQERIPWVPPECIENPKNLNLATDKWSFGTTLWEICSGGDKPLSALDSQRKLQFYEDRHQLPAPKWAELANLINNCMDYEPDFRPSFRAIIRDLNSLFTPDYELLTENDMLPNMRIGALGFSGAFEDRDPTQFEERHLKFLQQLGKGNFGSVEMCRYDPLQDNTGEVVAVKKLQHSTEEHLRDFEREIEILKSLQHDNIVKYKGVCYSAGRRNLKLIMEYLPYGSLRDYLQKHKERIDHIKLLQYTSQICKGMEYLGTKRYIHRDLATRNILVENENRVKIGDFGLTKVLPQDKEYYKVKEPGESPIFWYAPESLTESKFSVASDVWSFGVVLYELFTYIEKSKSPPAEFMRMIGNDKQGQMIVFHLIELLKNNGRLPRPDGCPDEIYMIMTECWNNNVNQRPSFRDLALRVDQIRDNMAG
Chain of FGFR3 (P22607 whole entry, looked up): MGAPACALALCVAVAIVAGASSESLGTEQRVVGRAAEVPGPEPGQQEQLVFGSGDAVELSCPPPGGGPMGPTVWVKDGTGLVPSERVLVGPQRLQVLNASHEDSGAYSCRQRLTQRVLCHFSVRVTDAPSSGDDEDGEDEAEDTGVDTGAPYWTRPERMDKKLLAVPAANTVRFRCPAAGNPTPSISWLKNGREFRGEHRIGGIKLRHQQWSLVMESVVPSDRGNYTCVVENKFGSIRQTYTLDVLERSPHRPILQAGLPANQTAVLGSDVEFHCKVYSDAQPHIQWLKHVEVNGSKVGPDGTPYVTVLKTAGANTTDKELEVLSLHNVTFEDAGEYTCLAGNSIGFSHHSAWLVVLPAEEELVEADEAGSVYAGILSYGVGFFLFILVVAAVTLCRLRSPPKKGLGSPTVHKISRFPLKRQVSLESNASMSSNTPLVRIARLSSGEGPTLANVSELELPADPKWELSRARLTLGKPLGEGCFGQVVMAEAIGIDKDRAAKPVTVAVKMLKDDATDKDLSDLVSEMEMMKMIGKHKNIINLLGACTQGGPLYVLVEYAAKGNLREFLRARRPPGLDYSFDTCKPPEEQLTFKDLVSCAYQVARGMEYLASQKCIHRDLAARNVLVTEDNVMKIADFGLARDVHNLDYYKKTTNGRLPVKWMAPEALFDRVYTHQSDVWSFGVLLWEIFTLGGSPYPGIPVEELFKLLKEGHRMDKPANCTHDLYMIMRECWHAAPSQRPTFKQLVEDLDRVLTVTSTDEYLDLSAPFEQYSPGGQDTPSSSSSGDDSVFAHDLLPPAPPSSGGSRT
Chain of EPHB2 (P29323 whole entry, looked up): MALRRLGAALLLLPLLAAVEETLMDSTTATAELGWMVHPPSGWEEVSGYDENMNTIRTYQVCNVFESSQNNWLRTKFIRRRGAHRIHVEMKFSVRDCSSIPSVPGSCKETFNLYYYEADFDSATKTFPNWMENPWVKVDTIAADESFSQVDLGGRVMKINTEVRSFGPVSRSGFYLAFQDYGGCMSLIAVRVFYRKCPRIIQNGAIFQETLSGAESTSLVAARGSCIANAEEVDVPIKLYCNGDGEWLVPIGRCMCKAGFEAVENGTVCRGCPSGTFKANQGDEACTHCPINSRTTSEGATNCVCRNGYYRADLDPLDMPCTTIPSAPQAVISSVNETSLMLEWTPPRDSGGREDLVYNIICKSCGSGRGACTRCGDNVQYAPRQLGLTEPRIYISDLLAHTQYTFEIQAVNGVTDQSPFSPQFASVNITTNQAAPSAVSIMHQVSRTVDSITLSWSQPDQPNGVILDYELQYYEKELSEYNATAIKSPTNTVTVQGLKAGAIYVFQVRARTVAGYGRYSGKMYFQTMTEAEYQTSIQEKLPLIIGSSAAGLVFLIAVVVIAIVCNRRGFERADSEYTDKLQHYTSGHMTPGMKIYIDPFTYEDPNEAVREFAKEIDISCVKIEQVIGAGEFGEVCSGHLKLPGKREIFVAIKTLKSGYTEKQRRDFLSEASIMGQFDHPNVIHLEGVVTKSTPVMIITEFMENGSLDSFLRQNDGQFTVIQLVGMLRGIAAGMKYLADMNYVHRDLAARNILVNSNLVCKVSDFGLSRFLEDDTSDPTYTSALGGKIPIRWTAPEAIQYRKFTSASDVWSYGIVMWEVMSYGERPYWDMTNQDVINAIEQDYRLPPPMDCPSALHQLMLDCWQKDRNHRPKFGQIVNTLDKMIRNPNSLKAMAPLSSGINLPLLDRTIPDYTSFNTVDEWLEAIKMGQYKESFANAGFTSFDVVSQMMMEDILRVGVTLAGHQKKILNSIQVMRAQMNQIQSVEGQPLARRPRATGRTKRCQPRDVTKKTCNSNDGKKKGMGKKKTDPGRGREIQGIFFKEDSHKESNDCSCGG
Chain of Fes (P07332 whole entry, looked up): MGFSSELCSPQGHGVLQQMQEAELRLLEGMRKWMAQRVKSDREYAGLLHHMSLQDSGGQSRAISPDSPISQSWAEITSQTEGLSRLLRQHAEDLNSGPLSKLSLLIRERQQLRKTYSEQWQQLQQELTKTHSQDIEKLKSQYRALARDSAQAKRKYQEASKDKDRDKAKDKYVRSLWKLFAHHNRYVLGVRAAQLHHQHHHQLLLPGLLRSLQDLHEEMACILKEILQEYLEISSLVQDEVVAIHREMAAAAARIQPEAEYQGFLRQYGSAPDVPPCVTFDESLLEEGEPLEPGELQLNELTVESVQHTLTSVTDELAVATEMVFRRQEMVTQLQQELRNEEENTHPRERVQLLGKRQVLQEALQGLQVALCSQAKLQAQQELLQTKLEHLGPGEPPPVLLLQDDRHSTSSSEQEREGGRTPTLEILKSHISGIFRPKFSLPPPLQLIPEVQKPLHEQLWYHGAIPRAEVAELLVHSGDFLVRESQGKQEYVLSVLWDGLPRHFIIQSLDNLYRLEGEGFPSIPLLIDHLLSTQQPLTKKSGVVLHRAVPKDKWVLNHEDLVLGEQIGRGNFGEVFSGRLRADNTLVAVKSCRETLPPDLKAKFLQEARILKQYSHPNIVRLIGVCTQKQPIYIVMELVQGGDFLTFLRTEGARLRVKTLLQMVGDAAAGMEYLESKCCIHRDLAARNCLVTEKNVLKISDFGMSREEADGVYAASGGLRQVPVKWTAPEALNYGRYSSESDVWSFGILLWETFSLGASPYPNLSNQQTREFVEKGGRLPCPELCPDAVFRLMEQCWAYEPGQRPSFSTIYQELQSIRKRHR
Chain of Hck (P08631 whole entry, looked up): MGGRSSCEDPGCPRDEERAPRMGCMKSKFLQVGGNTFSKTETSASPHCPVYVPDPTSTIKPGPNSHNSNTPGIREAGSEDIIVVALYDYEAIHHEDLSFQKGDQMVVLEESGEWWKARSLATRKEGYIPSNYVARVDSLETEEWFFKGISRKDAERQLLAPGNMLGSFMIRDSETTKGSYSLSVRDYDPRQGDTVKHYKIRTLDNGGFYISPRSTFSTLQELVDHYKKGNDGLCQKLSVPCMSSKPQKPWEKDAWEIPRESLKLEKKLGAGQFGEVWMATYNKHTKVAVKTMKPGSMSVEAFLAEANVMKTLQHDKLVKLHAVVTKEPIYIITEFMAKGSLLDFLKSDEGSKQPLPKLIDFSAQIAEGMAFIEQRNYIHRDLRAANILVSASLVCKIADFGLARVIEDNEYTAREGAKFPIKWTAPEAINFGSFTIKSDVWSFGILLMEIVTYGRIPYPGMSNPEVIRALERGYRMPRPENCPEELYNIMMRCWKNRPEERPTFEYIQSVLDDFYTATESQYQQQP
Chain of Fyn (P06241 whole entry, looked up): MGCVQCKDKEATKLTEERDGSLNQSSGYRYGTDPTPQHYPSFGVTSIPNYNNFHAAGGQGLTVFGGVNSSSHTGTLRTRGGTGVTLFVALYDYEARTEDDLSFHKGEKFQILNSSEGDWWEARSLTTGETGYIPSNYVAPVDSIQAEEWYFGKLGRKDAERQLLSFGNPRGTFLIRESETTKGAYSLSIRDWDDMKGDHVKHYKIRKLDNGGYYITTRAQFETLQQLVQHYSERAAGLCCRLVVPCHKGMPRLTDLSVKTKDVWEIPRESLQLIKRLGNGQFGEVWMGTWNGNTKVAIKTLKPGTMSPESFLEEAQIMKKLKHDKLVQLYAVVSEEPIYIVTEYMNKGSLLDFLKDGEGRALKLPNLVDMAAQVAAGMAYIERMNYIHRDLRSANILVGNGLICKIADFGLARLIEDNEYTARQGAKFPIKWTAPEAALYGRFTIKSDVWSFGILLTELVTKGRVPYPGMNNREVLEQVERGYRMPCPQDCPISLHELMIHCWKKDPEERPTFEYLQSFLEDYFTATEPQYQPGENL

SH2 binding enrichment (Grb2 SH2)	SH2 binding enrichment (SHP2-C SH2)	SH2 binding enrichment (c-Src SH2)	Sequence	phosphorylation enrichment (MERTK)	phosphorylation enrichment (Jak2)	phosphorylation enrichment (EPHB1)	phosphorylation enrichment (c-Abl (mouse))	phosphorylation enrichment (Fer (mouse))	phosphorylation enrichment (Hck)	phosphorylation enrichment (Fyn)	phosphorylation enrichment (FGFR3)	phosphorylation enrichment (EPHB2)	phosphorylation enrichment (Fes)	phosphorylation enrichment (c-Src)	phosphorylation enrichment (AncSZ)	phosphorylation enrichment (FGFR1)
1.36	0.446	0.373	QGIIIYKAAFF [SLC25A4_Y187_R188K_YF]	0.439	1.05	1.21	1.1	0.721	0.526	0.569	0.852	0.723	1.36	0.917	1.5	0.798
0.679	0.891	0.26	QKNVSYVSTVS [TASOR_Y1043]	0.509	0.401	0.285	0.38	0.403	0.47	0.532	0.506	1.75	0.514	0.335	0.815	0.405
0.904	1.25	0.659	QLQVFYATRDQ [MIPEP_Y579_L582R]	0.567	1.96	0.787	1.2	0.59	1.14	0.881	1	0.805	1.71	0.977	1.27	0.86
0.768	0.442	0.402	QNTGDDFDLFG [PTPN11_Y62_Y62D_YF]	0.634	1.6	0.599	1.11	0.7	0.748	0.54	1.1	1.02	1.75	0.689	1.7	0.936
0.892	0.502	0.816	QNTVDYYDLYG [PTPN11_Y62_G60V]	1.33	2.63	4.44	1.38	1.1	6.03	6.01	15.4	3.38	1.66	5.35	2.72	18.4
0.825	0.542	0.843	QRALLYEDALY [UNC13D_Y56]	5.12	1.08	12.3	1.04	17.1	7.73	7.7	0.975	12.3	2.05	6.09	2.17	0.861
0.643	0.39	0.364	QTEAEYRFIFM [PTPN11_Y511_Q510E_YF]	0.618	1.24	0.59	0.912	0.847	0.626	0.511	1.42	0.762	1.32	0.525	1.29	1.46
0.7	0.553	0.423	QTEAEYRFIYM [PTPN11_Y511_Q510E]	0.641	1.51	1.09	1.26	1.11	0.886	0.828	3.09	0.65	1.86	0.878	1.55	4.4
0.563	0.744	0.244	QTEAQYRFIYM [PTPN11_Y511]	0.667	1.56	0.835	1.5	1.09	0.542	0.634	1.54	0.782	1.29	1.23	1.77	1.65
0.884	0.62	0.431	RAEAQYLLVSN [LRIG1_Y1054]	0.681	0.933	0.639	0.665	0.43	0.493	0.466	1.78	0.551	0.761	0.648	0.897	2.61
0.833	0.538	0.808	REIIAYQPYGK [PRKCG_Y529_P524R]	0.294	0.531	0.429	0.467	0.357	0.563	0.625	0.415	0.617	0.721	0.405	0.83	0.329
0.905	0.654	0.437	RGGWAYVLHPT [TRMT61A_Y67_V66A]	0.52	1.1	0.711	0.93	0.611	0.509	0.505	0.698	0.816	1.51	0.671	1.34	0.663
1.03	0.581	0.388	RGKDSYETSKL [SPP1_Y225_Q229K]	0.62	1.07	0.983	1.49	0.699	0.669	0.695	0.788	0.678	0.986	0.571	1.26	0.613
0.674	0.604	0.486	RGLQVYHRRNA [LRP2_Y2010]	1.2	1.2	0.755	0.957	0.803	0.783	0.964	0.889	0.86	1.05	1.49	1.41	1.1
1.88	0.962	1.4	RHFVFYFSFLL [PTEN_Y177_R173H_YF]	0.357	0.607	0.547	0.703	0.18	0.391	0.538	0.553	1.44	0.867	0.653	1.26	0.496

Second part, the sequence before the results:

Sequence	SH2 binding enrichment (Grb2 SH2)	SH2 binding enrichment (SHP2-C SH2)	SH2 binding enrichment (c-Src SH2)	phosphorylation enrichment (MERTK)	phosphorylation enrichment (Jak2)	phosphorylation enrichment (EPHB1)	phosphorylation enrichment (c-Abl (mouse))	phosphorylation enrichment (Fer (mouse))	phosphorylation enrichment (Hck)	phosphorylation enrichment (Fyn)	phosphorylation enrichment (FGFR3)	phosphorylation enrichment (EPHB2)	phosphorylation enrichment (Fes)	phosphorylation enrichment (c-Src)	phosphorylation enrichment (AncSZ)	phosphorylation enrichment (FGFR1)
QFQEKYKQVEQ [HCN4_Y531_YF]	0.624	0.876	0.603	0.559	2.09	0.663	0.913	0.63	0.882	0.564	0.706	0.95	1.29	0.679	1.27	0.699
QLPRGYISIPV [BAG3_Y205]	0.736	0.993	0.887	0.612	0.881	0.698	0.867	0.642	0.718	0.839	0.744	0.722	0.974	0.592	0.789	0.482
QMVGMYASFFM [AVPR2_Y124_S127F_YF]	0.642	0.782	0.602	5.38	2.03	3.06	4.72	5.31	5.82	9.8	1.5	2.27	2.03	8.13	1.88	0.676
QQLQGYVPSNF [FRK_Y99_I100V_YF]	1.03	0.64	0.659	0.75	1.52	0.653	1.13	0.584	0.802	0.479	0.779	0.664	1.07	0.904	0.699	0.475
QRAADYFSQQM [GBP6_Y333_YF]	0.789	0.353	0.338	0.352	0.698	0.469	0.586	0.491	0.488	0.546	0.634	0.57	0.921	0.687	1	0.558
QSSALYEDCYL [ASS1_Y83_R86C]	0.863	0.514	0.86	3.43	1.5	12.4	1.35	16.9	1.84	3	1.02	7.55	2.95	3.61	1.82	0.788
QTLTDYDIRFY [CSNK2A1_Y131]	0.795	0.775	0.548	0.484	1.18	0.825	0.913	0.586	0.526	0.552	0.84	0.72	1.27	0.603	1.27	0.62
QYKDKYLAKHN [CASK_Y712]	0.648	0.798	1.02	0.283	0.605	0.501	0.458	0.349	0.207	0.436	0.663	0.402	0.927	0.308	0.401	0.526
RAMRRYLERGE [ERBB3_Y680]	0.716	0.554	0.411	0.61	0.607	0.719	0.615	0.686	0.711	0.608	0.679	0.563	0.576	0.455	0.722	0.636
RDEHGYISRCF [HSPB1_Y133_Q128R]	0.717	0.455	0.45	0.565	1.53	0.789	1.23	0.734	0.755	0.825	1.17	1.15	1.65	0.675	1.49	0.722
REGAKYVSHDA [ASS1_Y113_G117D]	0.678	0.452	0.389	0.833	0.886	0.508	0.75	0.767	0.553	0.655	0.739	0.423	0.988	0.565	1.4	0.648
RFLRGYRQDAY [HLA-A_Y137]	1.1	0.556	0.628	1.2	0.927	0.43	0.922	0.483	0.764	0.647	0.664	0.432	0.827	1.14	1.15	0.677
RGRSTCYWPRP [GAGE12J_Y9_Y9C]	0.642	0.714	0.658	0.732	0.655	0.688	0.623	0.582	0.736	0.599	0.981	0.6	0.756	0.816	1.06	0.704
RHPYFYAPELL [ALB_Y174]	1.34	0.891	0.796	0.622	1.13	0.564	0.694	0.476	0.474	0.517	10.8	0.762	1.19	0.776	1.38	12.7
RIFDYYSARKT [STOX1_Y858_A863T]	0.701	0.849	0.534	1.37	1.18	0.521	0.259	0.441	0.982	0.402	0.48	0.439	0.665	0.473	0.531	0.503
RKGGSYTQAAS [HLA-A_Y344]	1.07	0.584	1.06	0.461	0.637	0.446	0.902	0.699	0.443	0.465	0.563	0.399	0.885	0.384	0.631	0.442
RKLASYRSCLL [DHX37_Y1080]	1.04	1.04	0.861	0.356	0.633	0.321	0.627	0.768	0.468	0.515	0.617	0.492	0.811	0.486	0.75	0.581
RKLVDYNSARH [BIN1_Y150_D151N]	0.972	0.814	0.686	0.393	0.425	0.311	0.548	0.419	0.383	0.389	0.326	0.338	0.568	0.378	0.559	0.376
